Results: patent US10087225B2, “Formulation of MK2 inhibitor peptides” (MOERAE MATRIX, INC., priority 2015, dated 2018)

Legend:
Assay in all cases: Kinase Profiling Assay
Format in all cases: biochemical
[1] = molecular target: BTK(R28H)(h) (Homo sapiens, UniProt Q06187, R28H)
[2] = molecular target: cKit(D816H)(h) (Homo sapiens, UniProt P10721, D816H)
[3] = molecular target: cKit(V560G)(h) (Homo sapiens, UniProt P10721, V560G)
[4] = molecular target: HIPK1(h) (Homo sapiens, UniProt Q86Z02)
[5] = molecular target: T1, IKKα(h) (Homo sapiens, UniProt O15111)
T1 sequence (O15111 1-745): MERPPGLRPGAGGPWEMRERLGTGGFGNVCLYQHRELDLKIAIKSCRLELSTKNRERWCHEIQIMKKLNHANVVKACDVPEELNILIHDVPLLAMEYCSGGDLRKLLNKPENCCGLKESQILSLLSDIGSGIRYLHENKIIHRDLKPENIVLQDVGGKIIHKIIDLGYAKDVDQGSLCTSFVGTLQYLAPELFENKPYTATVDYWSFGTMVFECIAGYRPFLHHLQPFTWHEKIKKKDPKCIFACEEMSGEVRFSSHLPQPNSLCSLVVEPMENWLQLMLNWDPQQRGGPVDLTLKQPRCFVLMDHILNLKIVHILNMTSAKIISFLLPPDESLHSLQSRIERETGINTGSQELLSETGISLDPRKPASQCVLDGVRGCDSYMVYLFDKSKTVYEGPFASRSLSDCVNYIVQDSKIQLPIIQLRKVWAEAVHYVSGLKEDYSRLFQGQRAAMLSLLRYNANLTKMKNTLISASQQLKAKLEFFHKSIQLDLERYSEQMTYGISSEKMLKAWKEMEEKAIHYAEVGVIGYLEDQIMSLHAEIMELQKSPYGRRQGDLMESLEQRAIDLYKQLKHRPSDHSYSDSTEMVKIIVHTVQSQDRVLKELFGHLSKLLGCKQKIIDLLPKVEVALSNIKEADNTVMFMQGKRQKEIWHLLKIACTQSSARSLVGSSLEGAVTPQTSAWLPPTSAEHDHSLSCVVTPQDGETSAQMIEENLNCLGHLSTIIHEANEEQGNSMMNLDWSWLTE

[6] = molecular target: ACK1(h) (Homo sapiens, UniProt Q07912); settings: 100 μM
Chain of ACK1(h) (Q07912 whole entry): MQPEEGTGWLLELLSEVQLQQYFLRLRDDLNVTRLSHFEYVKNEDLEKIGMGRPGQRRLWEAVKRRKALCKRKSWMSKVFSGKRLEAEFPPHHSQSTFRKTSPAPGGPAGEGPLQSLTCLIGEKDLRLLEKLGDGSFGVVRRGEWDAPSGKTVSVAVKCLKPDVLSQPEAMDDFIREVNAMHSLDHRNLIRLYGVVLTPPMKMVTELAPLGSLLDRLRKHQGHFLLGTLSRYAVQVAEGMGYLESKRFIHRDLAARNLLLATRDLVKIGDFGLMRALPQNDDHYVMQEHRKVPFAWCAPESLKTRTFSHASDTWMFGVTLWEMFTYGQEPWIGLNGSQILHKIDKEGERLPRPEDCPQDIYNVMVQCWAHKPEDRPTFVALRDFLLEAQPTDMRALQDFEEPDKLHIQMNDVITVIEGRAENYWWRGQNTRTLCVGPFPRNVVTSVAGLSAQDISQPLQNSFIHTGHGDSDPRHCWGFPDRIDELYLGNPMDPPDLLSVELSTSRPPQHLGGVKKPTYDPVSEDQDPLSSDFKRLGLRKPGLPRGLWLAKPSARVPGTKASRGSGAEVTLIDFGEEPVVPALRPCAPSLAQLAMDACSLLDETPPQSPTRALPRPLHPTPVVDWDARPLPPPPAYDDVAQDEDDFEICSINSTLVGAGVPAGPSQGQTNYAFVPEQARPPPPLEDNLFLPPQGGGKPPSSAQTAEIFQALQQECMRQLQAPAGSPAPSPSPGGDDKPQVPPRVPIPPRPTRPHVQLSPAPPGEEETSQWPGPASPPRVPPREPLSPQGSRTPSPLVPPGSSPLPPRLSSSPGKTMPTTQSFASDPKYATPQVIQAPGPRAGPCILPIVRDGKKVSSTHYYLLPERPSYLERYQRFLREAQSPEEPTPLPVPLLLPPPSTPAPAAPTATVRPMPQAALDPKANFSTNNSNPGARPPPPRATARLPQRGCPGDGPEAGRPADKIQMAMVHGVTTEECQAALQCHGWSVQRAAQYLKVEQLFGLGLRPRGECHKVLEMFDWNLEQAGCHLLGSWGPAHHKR

[7] = molecular target: AMPKa1(h) (Homo sapiens, UniProt Q13131); settings: 100 μM
Chain of AMPKa1(h) (Q13131 whole entry): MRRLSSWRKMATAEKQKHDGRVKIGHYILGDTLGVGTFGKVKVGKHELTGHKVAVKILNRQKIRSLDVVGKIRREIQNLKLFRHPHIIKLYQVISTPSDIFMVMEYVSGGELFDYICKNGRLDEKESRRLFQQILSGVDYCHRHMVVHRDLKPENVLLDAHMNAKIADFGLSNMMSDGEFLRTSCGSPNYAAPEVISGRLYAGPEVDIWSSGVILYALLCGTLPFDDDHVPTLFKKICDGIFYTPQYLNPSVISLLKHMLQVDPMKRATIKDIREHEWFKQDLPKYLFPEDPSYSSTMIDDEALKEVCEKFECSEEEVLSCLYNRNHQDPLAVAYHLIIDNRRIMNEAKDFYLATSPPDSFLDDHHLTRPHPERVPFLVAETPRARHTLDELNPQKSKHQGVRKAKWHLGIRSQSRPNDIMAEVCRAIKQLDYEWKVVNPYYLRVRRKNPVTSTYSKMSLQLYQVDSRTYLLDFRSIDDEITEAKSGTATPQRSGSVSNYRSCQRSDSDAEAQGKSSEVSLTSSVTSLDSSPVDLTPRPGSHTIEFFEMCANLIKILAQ
Chain of AMPKa1(h) (Q9Y478 whole entry partner): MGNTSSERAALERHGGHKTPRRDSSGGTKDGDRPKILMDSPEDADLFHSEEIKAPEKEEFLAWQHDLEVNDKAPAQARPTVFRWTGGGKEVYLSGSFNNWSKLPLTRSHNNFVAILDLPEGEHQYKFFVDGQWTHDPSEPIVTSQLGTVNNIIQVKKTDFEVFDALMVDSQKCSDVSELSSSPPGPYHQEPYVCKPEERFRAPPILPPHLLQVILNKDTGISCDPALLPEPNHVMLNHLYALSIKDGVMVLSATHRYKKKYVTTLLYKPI
Chain of AMPKa1(h) (P54619 whole entry partner): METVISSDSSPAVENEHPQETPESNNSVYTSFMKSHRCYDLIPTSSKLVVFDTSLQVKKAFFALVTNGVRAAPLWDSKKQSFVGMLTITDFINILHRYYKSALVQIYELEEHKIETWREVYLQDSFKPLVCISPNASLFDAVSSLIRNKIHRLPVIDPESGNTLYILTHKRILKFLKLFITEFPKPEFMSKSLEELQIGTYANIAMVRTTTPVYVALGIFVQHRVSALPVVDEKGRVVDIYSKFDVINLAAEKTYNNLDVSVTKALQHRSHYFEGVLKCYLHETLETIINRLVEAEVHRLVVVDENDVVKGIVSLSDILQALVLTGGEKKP

[8] = molecular target: Aurora-B(h) (Homo sapiens, UniProt Q96GD4); settings: 100 μM
Chain of Aurora-B(h) (Q96GD4 whole entry): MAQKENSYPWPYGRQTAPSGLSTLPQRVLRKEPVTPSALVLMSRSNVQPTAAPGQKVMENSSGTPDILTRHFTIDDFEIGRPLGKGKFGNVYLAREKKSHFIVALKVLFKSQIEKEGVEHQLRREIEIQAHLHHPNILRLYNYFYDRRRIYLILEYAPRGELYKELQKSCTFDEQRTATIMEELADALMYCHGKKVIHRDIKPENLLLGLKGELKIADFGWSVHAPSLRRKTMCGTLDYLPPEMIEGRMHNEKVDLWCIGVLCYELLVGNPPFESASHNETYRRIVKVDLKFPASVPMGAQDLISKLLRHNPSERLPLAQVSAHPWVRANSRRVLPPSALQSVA

[9] = molecular target: BTK(h) (Homo sapiens, UniProt Q06187); settings: 100 μM
[10] = molecular target: CK1δ(h) (Homo sapiens, UniProt P48730); settings: 100 μM
Chain of CK1δ(h) (P48730 whole entry): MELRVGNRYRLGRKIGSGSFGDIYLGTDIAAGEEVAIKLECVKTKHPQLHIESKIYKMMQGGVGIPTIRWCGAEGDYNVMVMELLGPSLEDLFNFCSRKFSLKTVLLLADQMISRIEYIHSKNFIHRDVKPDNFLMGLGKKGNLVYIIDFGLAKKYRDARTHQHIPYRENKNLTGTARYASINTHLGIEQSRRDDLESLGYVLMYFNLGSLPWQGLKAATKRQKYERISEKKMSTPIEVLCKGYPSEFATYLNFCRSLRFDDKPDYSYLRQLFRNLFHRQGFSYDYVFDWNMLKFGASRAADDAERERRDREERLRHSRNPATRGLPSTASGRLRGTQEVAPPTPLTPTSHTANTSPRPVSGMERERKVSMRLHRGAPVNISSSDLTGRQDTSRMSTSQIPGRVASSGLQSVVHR

[11] = molecular target: EGFR(h) (Homo sapiens, UniProt P00533); settings: 100 μM
[12] = molecular target: FGFR4(h) (Homo sapiens, UniProt P22455); settings: 100 μM
[13] = molecular target: Flt3(h) (Homo sapiens, UniProt P36888); settings: 100 μM
[14] = molecular target: Met(h) (Homo sapiens, UniProt P08581); settings: 100 μM
[15] = molecular target: Met(D1246N)(h) (Homo sapiens, UniProt P08581, D1228N); settings: 100 μM
[16] = molecular target: Met(M1268T)(h) (Homo sapiens, UniProt P08581, M1250T); settings: 100 μM
[17] = molecular target: MSK1(h) (Homo sapiens, UniProt O75582); settings: 100 μM
[18] = molecular target: MST3(h) (Homo sapiens, UniProt Q9Y6E0); settings: 100 μM
Chain of MST3(h) (Q9Y6E0 whole entry): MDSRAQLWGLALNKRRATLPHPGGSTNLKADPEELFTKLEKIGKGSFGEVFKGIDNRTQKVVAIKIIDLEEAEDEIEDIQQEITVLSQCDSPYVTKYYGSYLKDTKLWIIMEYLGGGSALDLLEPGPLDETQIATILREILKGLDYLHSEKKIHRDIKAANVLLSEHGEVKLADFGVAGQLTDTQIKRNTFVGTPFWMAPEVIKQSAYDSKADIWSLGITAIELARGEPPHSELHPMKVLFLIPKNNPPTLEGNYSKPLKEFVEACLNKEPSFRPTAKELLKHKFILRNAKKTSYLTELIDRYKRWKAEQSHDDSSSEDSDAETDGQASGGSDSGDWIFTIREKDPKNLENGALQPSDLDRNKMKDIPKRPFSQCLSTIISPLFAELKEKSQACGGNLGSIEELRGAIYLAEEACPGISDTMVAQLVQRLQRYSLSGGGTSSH

[19] = molecular target: mTOR/FKBP12(h) (Homo sapiens, UniProt P42345); settings: 100 μM
[20] = molecular target: NEK7(h) (Homo sapiens, UniProt Q8TDX7); settings: 100 μM
Chain of NEK7(h) (Q8TDX7 whole entry): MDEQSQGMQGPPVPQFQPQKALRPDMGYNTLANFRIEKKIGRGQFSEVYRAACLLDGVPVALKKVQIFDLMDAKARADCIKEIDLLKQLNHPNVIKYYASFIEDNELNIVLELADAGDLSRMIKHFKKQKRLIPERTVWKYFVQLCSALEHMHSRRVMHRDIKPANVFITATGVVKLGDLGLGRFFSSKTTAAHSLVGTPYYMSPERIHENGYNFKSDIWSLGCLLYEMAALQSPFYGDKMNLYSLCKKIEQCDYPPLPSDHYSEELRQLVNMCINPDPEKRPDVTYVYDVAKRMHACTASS

[21] = molecular target: Ret(V804L)(h) (Homo sapiens, UniProt P07949, V804L); settings: 100 μM
[22] = molecular target: Src(T341M)(h) (Homo sapiens, UniProt P12931, T341M); settings: 100 μM
[23] = molecular target: T2, TSSK2(h) (Homo sapiens, UniProt Q96PF2); settings: 100 μM
T2 sequence (Q96PF2 1-358): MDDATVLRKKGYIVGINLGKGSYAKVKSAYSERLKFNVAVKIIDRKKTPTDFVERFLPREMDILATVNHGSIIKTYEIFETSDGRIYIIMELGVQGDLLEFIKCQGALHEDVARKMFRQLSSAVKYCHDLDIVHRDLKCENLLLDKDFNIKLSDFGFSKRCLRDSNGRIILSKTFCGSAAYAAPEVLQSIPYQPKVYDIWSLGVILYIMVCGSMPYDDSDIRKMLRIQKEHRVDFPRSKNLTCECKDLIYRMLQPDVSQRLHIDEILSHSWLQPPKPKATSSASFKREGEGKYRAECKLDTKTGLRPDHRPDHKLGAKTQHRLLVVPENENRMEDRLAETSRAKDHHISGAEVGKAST

Chain of HIPK1(h) (Q86Z02 whole entry): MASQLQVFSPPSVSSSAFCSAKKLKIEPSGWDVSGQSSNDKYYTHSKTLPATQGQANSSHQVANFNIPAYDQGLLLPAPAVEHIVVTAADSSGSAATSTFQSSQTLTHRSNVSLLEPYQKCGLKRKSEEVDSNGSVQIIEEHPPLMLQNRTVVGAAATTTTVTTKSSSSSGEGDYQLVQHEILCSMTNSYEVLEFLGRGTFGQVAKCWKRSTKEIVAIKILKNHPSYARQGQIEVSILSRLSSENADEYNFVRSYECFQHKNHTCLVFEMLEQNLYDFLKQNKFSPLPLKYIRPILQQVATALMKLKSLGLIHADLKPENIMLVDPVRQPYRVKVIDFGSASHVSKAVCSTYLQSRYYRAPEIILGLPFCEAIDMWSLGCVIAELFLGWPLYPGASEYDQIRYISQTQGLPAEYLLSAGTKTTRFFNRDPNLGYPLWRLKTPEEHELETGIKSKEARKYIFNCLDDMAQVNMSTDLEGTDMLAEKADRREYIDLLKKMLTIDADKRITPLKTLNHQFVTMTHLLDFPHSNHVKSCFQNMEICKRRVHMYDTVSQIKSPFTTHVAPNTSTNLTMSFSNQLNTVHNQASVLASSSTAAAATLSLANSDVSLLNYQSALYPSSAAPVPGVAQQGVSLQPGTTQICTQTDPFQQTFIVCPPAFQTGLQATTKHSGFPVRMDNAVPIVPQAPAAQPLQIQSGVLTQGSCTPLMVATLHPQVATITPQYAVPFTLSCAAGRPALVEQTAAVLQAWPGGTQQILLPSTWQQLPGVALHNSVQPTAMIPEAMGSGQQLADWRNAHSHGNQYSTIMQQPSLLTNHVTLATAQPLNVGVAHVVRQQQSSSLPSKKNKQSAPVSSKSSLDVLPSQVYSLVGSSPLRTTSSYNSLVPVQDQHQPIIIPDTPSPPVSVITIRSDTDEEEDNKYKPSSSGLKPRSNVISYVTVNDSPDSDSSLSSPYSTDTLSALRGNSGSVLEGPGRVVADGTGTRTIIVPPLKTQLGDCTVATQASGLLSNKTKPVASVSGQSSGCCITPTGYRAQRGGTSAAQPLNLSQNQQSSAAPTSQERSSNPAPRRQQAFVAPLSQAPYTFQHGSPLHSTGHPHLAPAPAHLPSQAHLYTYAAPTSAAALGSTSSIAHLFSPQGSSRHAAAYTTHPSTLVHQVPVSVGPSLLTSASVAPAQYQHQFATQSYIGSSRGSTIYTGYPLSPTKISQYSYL

Substance	% activity [6] [%]	% activity [7] [%]	% activity [8] [%]	% activity [9] [%]	% activity [10] [%]	% activity [11] [%]	% activity [12] [%]	% activity [13] [%]	% activity [14] [%]	% activity [15] [%]	% activity [16] [%]	% activity [17] [%]	% activity [18] [%]	% activity [19] [%]	% activity [20] [%]	% activity [21] [%]	% activity [22] [%]	% activity [23] [%]	also measured
H-YARAAARQARAKALARQLGVAA-OH [MMI-0100]																			activity at 100 µM [1]: 91%; activity at 100 µM [2]: 79%; activity at 100 µM [3]: 94%; activity at 100 µM [4]: 94%; activity at 100 µM [5]: 108%
HRRIKAWLKKIKALARQLGVAA (Mammalian) [MMI-0500]	64	35	5	18	78	-1	3	17	27	90	239	8	4	140	89	20	59	92	% activity ([1]; 100 μM): 10%; % activity ([2]; 100 μM): 194%; % activity ([3]; 100 μM): 198%; % activity ([4]; 100 μM): 47%; % activity ([5]; 100 μM): 50%
YARAAARQARAKALNRQLGVA (Mammalian) [MMI-0200]	97	108	166	100	92	83	75	99	71	149	143	50	95	118	96	100	56	91	
